FireProtDB (doi:10.1021/bi00185a025)

B1: Chemotaxis protein CheY, P0AE67 (parent)
chain: MADKELKFLVVDDFSTMRRIVRNLLKELGFNNVEEAEDGVDALNKLQAGGYGFVISDWNMPNMDGLELLKTIRADGAMSALPVLMVTAEAKKENIIAAAQAGASGYVVKPFTAATLEEKLNKIFEKLGM

Variants of: B1
Details: Escherichia coli (strain K12); pH 7; 25 °C; Urea; CD; Sodium phosphate 5 mM; reversible: yes; structure 1CEY; whole UniProt chain shown

Variant: MADKELKFLVVDDNSTMRRIVRNLLKELGFNNVEEAEDGVDALNKLQAGGYGFVISDWNMPNMDGLELLKTIRADGAMSALPVLMVTAEAKKENIIAAAQAGASGYVVKGFTAATLEEKLNKIFEKLGM
- ddG of mutation (higher = less stable): -1.1 kcal/mol
- denaturant m value: 1.6 kcal/mol/M
- denaturant midpoint (higher = more stable): 3.94 M
- unfolding free energy: 6.3 kcal/mol

Variant: MADKELKFLVVDDNSTMRRIVRNLLKELGFNNVEEAEDGVDALNKLQAGGYGFVISDWNMPNMDGLELLKTIRADGAMSALPVLMVTAEAKKENIIAAAQAGASGYVVKPFTAATLEEKLNKIFEKLGM
- ddG of mutation (higher = less stable): -2.9 kcal/mol
- denaturant m value: 1.8 kcal/mol/M
- denaturant midpoint (higher = more stable): 4.5 M
- unfolding free energy: 8.1 kcal/mol
